# Experimental data published in article PMC12616241 (2025).
# Legend:
# Experiment in all cases: SPR
# [1] = biological target: FcγRIIIa-F158 (His-tagged recombinant) (human, UniProt P08637 17-208)
# [2] = biological target: FcγRIIIa-V158 (His-tagged recombinant) (human)
# FcγRIIa-H131 = biological target: FcγRIIa-H131
# FcγRIIa-R131 = biological target: FcγRIIa-R131
# Sequence of FcγRIIIa-F158 (His-tagged recombinant) (P08637 17-208): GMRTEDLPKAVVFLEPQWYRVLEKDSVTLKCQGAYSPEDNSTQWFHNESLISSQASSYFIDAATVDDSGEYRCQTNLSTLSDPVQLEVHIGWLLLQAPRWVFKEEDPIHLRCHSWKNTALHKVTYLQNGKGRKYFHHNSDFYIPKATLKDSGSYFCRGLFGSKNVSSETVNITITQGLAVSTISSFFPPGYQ
# Sequence of FcγRIIIa-V158 (His-tagged recombinant) (human) (chain, as listed by the source): as the sequence (P08637 17-208) above, with F160V counted along it
binder,measurement,setting,value
margetuximab (antibody) chain 1: QVQLQQSGPELVKPGASLKLSCTASGFNIKDTYIHWVKQRPEQGLEWIGRIYPTNGYTRYDPKFQDKATITADTSSNTAYLQVSRLTSEDTAVYYCSRWGGDGFYAMDYWGQGASVTVSS chain 2: DIVMTQSHKFMSTSVGDRVSITCKASQDVNTAVAWYQQKPGHSPKLLIYSASFRYTGVPDRFTGSRSGTDFTFTISSVQAEDLAVYYCQQHYTTPPTFGGGTKVEIK,Kd,[1],113 nM
same,Kd,[2],91.7 nM
same,Kd,FcγRIIa-H131,764 nM
same,Kd,FcγRIIa-R131,1440 nM
